Source: the supplement of paper PMC9170038

system: MS2 coat protein; experiment: apparent KD of MS2 coat protein; higher = weaker reporter binding; settings: Eterna round: R107; input ligand: arginine 13.2 mM
Protocol: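 RNA-MaP round R107: designed RNA switches with theophylline, tryptophan, arginine or FMN aptamers are transcribed on-chip within common flanks. They are titrated with SNAP-549-labelled MS2 coat protein in RNA-MaP buffer (100 mM Tris pH 7.5, 80 mM KCl, 4 mM MgCl2), without ligand or with the indicated ligand. Median apparent KD per design.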

Sequence	apparent KD of MS2 coat protein [nM]
AGAGUCAGACAAAAGUCUGGCUCAGCCGAAGGAGCGUCCGAAAGGACAGGUAGGUCGCGGUUACAUGAGGAUCACCCAUGUUCCU [ArgAS 7 #OpenEnded]	66.8

same assay, conditions: Eterna round: R107; input ligand: none

Sequence	apparent KD of MS2 coat protein [nM]
GGAUGAAACUGAAGGAGCGAGAUCACAAGAAUGGGUCAAACAUGAGGAUCACCCAUGUAAUCUCAGGUAGGUCGCAGUGUCCCUU [Exclusion Arginine B GF 11]	40.4
AACGUAUACAGAAGGAGCGUGAAUUAUAUUACUCAUUCAUAUACAUGAGGAUCACCCAUGUCACAGGUAGGUCGCUGUAUUCGUA [JR_ExcArginiB_Sub020]	82.2
UUGUUGUUUGGAAGGAGCGUGGAUGAGUUAGAACAUGAGGAUCACCCAUGUUGGAUGAUACCGCAGGUAGGUCGCCGGGUGGUGG [11.aA]	50.7
GCUAGUGGCAGAAGGAGCGGCAUACAUGCAAGUGACAUGAGGAUCACCCAUGUAAGGGAAUGCCAGGUAGGUCGCUGCCACUAGC [EAB NP+V+V2 #2 +-Same Structure]	61.5
UAAUAAGUACCGGUCCUCAGAUCCUCAUGACGAGGACCGGUACGGCCGCCACUCGAAACAUGAGGAUCACCCAUGUAAUAAUAAU [|T'-M'-Trp-Ms2|_Design 1]	22.2
AGCGGCUCGAAAGAGUCGCACUCAUGUGAAGGAGCGCGCGUAAGCGCAGGUAGGUCGCACAUGAGGAUCACCCAUGUACCUUCUA [MAT - Exclusion Arginine A - Mod of Eli - D21]	235
GGACUAACCUGAAGGAGCGACACGCAGAAACUGCAAAUUCCUCCACACGAGGAUCACCCGUGUCAGGUAGGUCGCAGGUUAGUCG [ArgBX 28]	20.2
GCGUUCUCUGCGGCCGCCACUCAAGGAGCUACAUAGCUCCUAGACAUGAGGAUCACCCAUGUCGCGAGGACCGGGUAGAUCCUUA [Same State Typptophan B GF8]	159
UACAUGAGGAUCACCCAUGUAUGAAUGGAUACCAGCGACAAUGGGCGCCCUUGGCAGCUAGUGGAUGAAGGGUGGGUACAAUACU [Exclusion Theophyline A GF4]	13.4
GGGUGGUAGGCGGCCGCCACUGAUUUUCAUUUAUAGAUGACAUGAGGAUCACCCAUGUUUAUGUGCAGGACCGGGCCUGUUGUGG [aaaS]	98.7
UGUAUGUGAUUUGAUACCAGACCAGCUGGUGGUACUUGAGGAUCACCCAGGUAGGUUUGGGUCCCUUGGCAGCAAAUCGCAUACU [SS Theo B #24 Ms12]	512
AAAACAUGAGGAUCACCCAUGUGGUGAGAAGGAGCGUCGGAAAUGACAGGUAGGUCGCUUAUCCGUAAGUAUUAGUGUUAGUACA [SSArg A #1]	280
ACCUGUACGAAAAGUGCAGGACACGGAAUACGAGGACCGGUACGGCCGCCACUCGGAAUAAACCUGAGGAUCACCCUGGUCCGUG [TrypAS 9 #AlternativeMS2 #Zipper #StaticStem]	25.1
AACAUGAGGAUCACCCAUGUCUGAACUGAAGGAGCGCUAAAUAAGGCAGGUAGGUCGCGGAAUUUUAUAUAUAUAUAUAUAUAGG [9.D]	28
GUUGGACUUUCGGCCGCCACUGAGAGAGUCGUGUGAACAUGAGGAUCACCCAUGUAAUAUAUAUACAGGACCGGGAGGGUUGUAA [4.N]	11.3
GGACUAACCUGAAGGAGCGGCACGCAGAAACUGCAAAUUCCUCCACACGAGGAUCACCCGUGUCAGGUAGGUCGCAGGUUAGUCG [ArgBX 28]	17.1
AGAGUCAGACAAAAGUCUGGCUCAGCCGAAGGAGCGUCCGAAAGGACAGGUAGGUCGCGGUUACAUGAGGAUCACCCAUGUUCCU [ArgAS 7 #OpenEnded]	136

same assay, conditions: Eterna round: R107; input ligand: theophylline 20 uM

Sequence	apparent KD of MS2 coat protein [nM]
GGAUGAAACUGAAGGAGCGAGAUCACAAGAAUGGGUCAAACAUGAGGAUCACCCAUGUAAUCUCAGGUAGGUCGCAGUGUCCCUU [Exclusion Arginine B GF 11]	80.5
CUUCAGGGUGCGGCCGCCACUUAUUAGGUGCUUGCGACGCCAGCACAUGAGGAUCACCCAUGUUCAAGGACCGGGCACCACCUUU [theeternabot_sameState_MS2_Trp_B_21]	20
AACGUAUACAGAAGGAGCGUGAAUUAUAUUACUCAUUCAUAUACAUGAGGAUCACCCAUGUCACAGGUAGGUCGCUGUAUUCGUA [JR_ExcArginiB_Sub020]	92
GGGCGCUAUCCCGCGAGGGAUAGCGUUCGUCGAGGACCGGUACGGCCGCCACUCGAACGAGUGGUGACAUGAGGAUCACCCAUGU [Oaa]	55.2
GCGUUCUCUGCGGCCGCCACUCAAGGAGCUACAUAGCUCCUAGACAUGAGGAUCACCCAUGUGGCGAGGACCGGGUAGAUCCUUA [Same State Typptophan B GF7]	359
UUGUUGUUUGGAAGGAGCGUGGAUGAGUUAGAACAUGAGGAUCACCCAUGUUGGAUGAUACCGCAGGUAGGUCGCCGGGUGGUGG [11.aA]	76.4
GGUUGGUCGCAGGAUACCAGUCCACCCGUGAUACUGCUAAACAUGAGGAUCACCCAUGUCGACCCUUGGCAGCCUGUCCAUGCGU [theeternabot_exclusion_MS2_Theo_B_45]	27.3
UCCACACAUGAGGAUCACCCAUGUUGAGAUACCAGUAAACCAAAAUACCCUUGGCAGCUCCUACGCUCUUACAGCGGGAAUAUCC [theeternabot_sameState_MS2_Theo_A_46]	19.5
GCUAGUGGCAGAAGGAGCGGCAUACAUGCAAGUGACAUGAGGAUCACCCAUGUAAGGGAAUGCCAGGUAGGUCGCUGCCACUAGC [EAB NP+V+V2 #2 +-Same Structure]	89.6
UAAUAAGUACCGGUCCUCAGAUCCUCAUGACGAGGACCGGUACGGCCGCCACUCGAAACAUGAGGAUCACCCAUGUAAUAAUAAU [|T'-M'-Trp-Ms2|_Design 1]	29.4
ACAUGAAGAACAGCGGUGGGCGCGCUCGAUACCAGUAUUUUAAACUACCCUUGGCAGCGACAUGAGGAUCACCCAUGUGAGAUGA [XTheo A #6]	21.8
CCUCACAUGAGGAUCACCCAUGUCUUUACACGAGGACCGGUACGGCCGCCACUCGUUCACAAAACAACCAGAAGUGAUGCCUACA [theeternabot_sameState_MS2_Trp_A_14]	183
AGCGGCUCGAAAGAGUCGCACUCAUGUGAAGGAGCGCGCGUAAGCGCAGGUAGGUCGCACAUGAGGAUCACCCAUGUACCUUCUA [MAT - Exclusion Arginine A - Mod of Eli - D21]	206
UAACAUGAGGAUCACCCAUGUUUGAAGAAACGAGGACCGGUACGGCCGCCACUCGACGAGUGGAUGAAUAGUGGGCUUGUGUGCU [Same State Trp A GF10]	16
GGACUAACCUGAAGGAGCGACACGCAGAAACUGCAAAUUCCUCCACACGAGGAUCACCCGUGUCAGGUAGGUCGCAGGUUAGUCG [ArgBX 28]	25.7
GAGCUGAUGUAGAGCCUUUAGUUCUGAGAUACCAGUACAGAAAUGUACCCUUGGCAGCUCAGCUUUACAUGAGGAUCACCCAUGU [Ex Theophylline A 17]	27.7
GCGUUCUCUGCGGCCGCCACUCAAGGAGCUACAUAGCUCCUAGACAUGAGGAUCACCCAUGUCGCGAGGACCGGGUAGAUCCUUA [Same State Typptophan B GF8]	288
AACAUGAGGAUCACCCAUGUCCCAUGUGAACGAGGACCGGUACGGCCGCCACUCGACCGAGGCGGCACAUGAGGAUCACCCACAU [whbob_SS_trypto A_2s13]	278
